Measured values as given in US20100272719A1 (CHENGDU KANGHONG BIOTECHNOLOGIES, published 2010).

Experiments:
[1] = target: T1, human VEGF165 (human, UniProt P15692-4 27-191); test: solution binding: human VEGF incubated 1 h at 37 C with dilutions of binder, free VEGF measured by ELISA kit
[2] = target: T1, human VEGF165; test: binding assay on purified fusion protein (quality testing)
[3] = target: T1, human VEGF165; test: comparison of affinity for VEGF, reference Avastin

T1 sequence (P15692 other isoform, or with tags, fused parts or gaps limits assumed): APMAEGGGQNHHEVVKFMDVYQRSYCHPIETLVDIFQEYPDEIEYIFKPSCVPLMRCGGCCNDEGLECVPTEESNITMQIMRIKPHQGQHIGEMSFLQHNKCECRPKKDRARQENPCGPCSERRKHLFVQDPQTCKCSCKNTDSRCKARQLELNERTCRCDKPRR

IC50 [1] [nM]	IC50 [2] [nM]	fold affinity against Avastin [3] [fold]	Binder
0.03			VEGF-TRAP (FP1′, FLTd2KDRd3-Fc) (Fc fusion, UniProt P17948 129-230, looked up, domain: 2nd Ig-like domain of FLT-1;domain: 3rd Ig-like domain of KDR; also called VEGF Trap (R1R2); not shown: human immunoglobulin Fc (IgFc)) SDTGRPFVEMYSEIPEIIHMTEGRELVIPCRVTSPNITVTLKKFPLDTLIPDGKRIIWDSRKGFIISNATYKEIGLLTCEATVNGHLYKTNYLTHRQTNTIIDVVLSPSHGIELSVGEKLVLNCTARTELNVGIDFNWEYPSSKHQHKKLVNRDLKTQSGSEMKKFLSTLTIDGVTRSDQGLYTCAASSGLMTKKNSTFVRVHEK
0.01	≤ 0.05	50	FP3′ (FLTd2-KDRd3-KDRd4-Fc chimeric fusion protein) (Fc fusion) GRPFVEMYSEIPEIIHMTEGRELVIPCRVTSPNITVTLKKFPLDTLIPDGKRIIWDSRKGFIISNATYKEIGLLTCEATVNGHLYKTNYLTHRQTNTIIDVVLSPSHGIELSVGEKLVLNCTARTELNVGIDFNWEYPSSKHQHKKLVNRDLKTQSGSEMKKFLSTLTIDGVTRSDQGLYTCAASSGLMTKKNSTFVRVHEKPFVAFGSGMESLVEATVGERVRIPAKYLGYPPPEIKWYKNGIPLESNHTIKAGHVLTIMEVSERDTGNYTVILTNPISKEKQSHVVSLVVYVPP
